Protein production data for 8 sequences are collected here from a protein production outcome set (Wang et al. 2014).

A short description of this series: label from the status in PepcDB records.
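Note: failed if final PepcDB status was selected cloned or expressed and not failed if soluble or beyond.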

Regarding “MSEINYSTVQYYLVLILIFIYLSLFVLEKKWPLRKATRPLLPRLAINFTFTLLVYVIASLFISPLAKATVLFTFSHDFGLLSMLPFNQWVVFILGFLLMDLSFYYWHALNHKLPLLWRFHVVHHADPDLDVSTAMRFHCVEIMYSSLFRLVQLGLIGVSPLLFFCYEFFFQAHTFFQHSNIKLPFRFERLINKIIVTPRMHGIHHSNYLNETNSNYGVVFSFWDRLHQTIKLDIPQQAIIIGVPGYSKPSDNSLIRLLLMPIKAQRHYWQIKKDFHFSRKSKTSDKKVRTLCE”, the protein production result is “failed”.
The entry for “MSEKMVAIMKTKPGYGAELVEVDVPKPGPGEVLIKVLATSICGTDLHIYEWNEWAQSRIKPPQIMGHEVAGEVVEIGPGVEGIEVGDYVSVETHIVCGKCYACRRGQYHVCQNTKIFGVDTDGVFAEYAVVPAQNIWKNPKSIPPEYATLQEPLGNAVDTVLAGPISGKSVLITGAGPLGLLGIAVAKASGAYPVIVSEPSDFRRELAKKVGADYVINPFEEDVVKEVMDITDGNGVDVFLEFSGAPKALEQGLQAVTPAGRVSLLGLYPGKVTIDFNNLIIFKALTIYGITGRHLWETWYTVSRLLQSGKLNLDPIITHKYKGFDKYEEAFELMRAGKTGKVVFMLK” is “not failed”; for “MSEKRLPLKPVLRIDFPPGERLGHGKVELMQLIAETGSISAAGRAMDMSYRRAWLLVDALNHMFRQPVICSQRGGKQGGGAALTVFGAELLERYRGMEERMNEALREDIDWLEANRNPQDALNRDREPPTL” it is “not failed”; for “MSELEEDFAKILMLKEERIKELEKRLSEKEEEIQELKRKLHKCQSVLPVPSTHIGPRTTRAQGISAEPQTYRSFHDLRQAFRKFTKSERSKDLIKEAILDNDFMKNLELSQIQEIVDCMYPVEYGKDSCIIKEGDVGSLVYVMEDGKVEVTKEGVKLCTMGPGKVFGELAILYNCTRTATVKTLVNVKLWAIDRQCFQTIMMRTGL” it is “failed”.
For “MSEMAASSAISLLDIKLRRFGVGASNHELRLTKWFKGDQAGAPTRRFTCFADMLAPIRRSEKSEERRFDQKMSAHGAGIKTSSSAVPFASPKSRFLSKQEKFYPRCTPRLTGPQSRDTPPKRDTGIANEKDWGIDLLNENVNEAGTNEDGSSWFRESGHDLGDNGYRCRWSRMGGRSHDGSSEWTETWWEKSDWTGYKELGVEKSGKNSEGDSWWETWQEVLHQDEWSNLARIERSAQKQAKSGTENAGWYEKWWEKYDAKGWTEKGAHKYGRLNEQSWWEKWGEHYDGRGSVLKWTDKWAETELGTKWGDKWEEKFFSGIGSRQGETWHVSPNSDRWSRTWGEEHFGNGKVHKYGKSTTGESWDIVVDEETYYEAEPHYGWADVVGDSTQLLSIQPRERPPGVYPNLEFGPSPPPEPDLPLTNHNDITSVCLAY”, the protein production entry is “failed”.
On to “MSENKKKFDKKGAKNMDEISKTLFAPIYPIIAENIINRFGITAGTCIDIGSGPGALSIALAKQSDFSIRALDFSKHMNEIALKNIADANLNDRIQIVQGDVHNIPIEDNYADLIVSRGSVFFWEDVATAFREIYRILKSGGKTYIGGGFGNKELRDSISAEMIRKNPDWKEFNRKNISQENVERFQNVLDEIGISSYEIILGDEGFWIIISKTDQEVI”, for which the protein production result is given as “not failed”.
In the case of “MSENLTMSELMDSFELKHFHKGEIVKGKVISVKNDEIIVNIGHFADGVVPRNEISNDKNFDINSINVDDDIFVMVLSGDDGEGNVLLSKKRADAIKVCDDLKEAFEEEKSIKVSLKEVVKGGIVGDFNGLRVFMPASQCAGRRIENLEELVGKTLEVRVIEFNKENRKVVVSRRVIDEEIRNNEKKALWSSIKEGEKRKGKVTRLAKFGAFVDIGGVEGLVHLSDMSWSRVHKPEEVVSVGDEVEVFVSEVDMDRERIALSLKDVIKNPWETLEGLKVGNVVLGKVTNFIKVGAFVEVLPGIEGLVHISEITDENIAKPSDILELGQEVKVKILNIDDENKKMSLSIKDAVETSNEYMQYNDEEEGYSLADLFKGLNLLEHHHHHH”, the protein production result was “not failed”.
Take “MSENQSEEVQQIEKLYEFSERLNASKDKSQNVEDYEGIIKMSKTSMKAKQLASQLIPRYFKFFPSLSTEAFDAHMDCIDDGDLGVRVQAIRGLPLFCKDTPDILSKIVDVLVQLLNTEEPVERDAVHKALMSLLRQDPKASSTALFTHAGVTPTTDDQIREKVLNFIRDKVIPLKGELLKPQEEMERHITDLIKQSLEDVTGGEFKMFMDFLTSLSIFGGKAPPERMQELVEIIEGQADLNAQFEFSDTDHIDRLISCLQLALPFFARGAPSSRFLIYLNKHIIPVFDKLPEERKLDLLKALADISPYTTAQEARQLLPSIVELLKIYMPARKTGEEMNFTYVECLLYAFHHLAHKVPNATNSLCGYKIVTGQPSDRLGEDFSELNKDFTERLTIVEDLTKATMKKLTQGMTEHNKAMSAAKTDEEKASIVSTLTCAIFYFS”: the protein production result was “failed”.
